As a reminder, the stoichiometry N is a count of units in the complex or per binding partner.

B1: TL1_(ABS2) (domain or fragment)
chain: VIKPTQYKPVPDEEPNSTDVEETLERIKNNDPKLEEVNLNNIRNIPIPTLKAYAEALKENSYVKKFALANTRADDHVAFAIAIMLKANKTITSLNLDSNHITGKGILAIFRALLQNNTLTELRFHNQRHICGGKTEMEIAKLLKENTTLLKLGYHFELAGPRMTVTNLLSRNMDKQRQKRLQEQRQAQ
notes: human tropomodulin 1 residues 164-229; human leiomodin 1 residues 365-486; The junction was made with a silent NruI site; cloned in vector pTYB1; also called Tmod1-Lmod1 ABS2 hybrid construct
B2: TL2_(ABS2) (domain or fragment)
chain: VIKPTQYKPVPDEEPNSTDVEETLERIKNNDPKLEEVNLNNIRNIPIPTLKAYAEALKENSYVKKFSLANTHADDSAAMAIAEMLKVNEHITNVNVESNFITGKGILAIMRALQHNTVLTELRFHNQRHIMGSQVEMEIVKLLKENTTLLRLGYHFELPGPRMSMTSILTRNMDKQRQKRLQEQKQQE
notes: human tropomodulin 1 residues 164-229; The junction was made with a silent NruI site; cloned in vector pTYB1; also called Tmod1-Lmod2 ABS2 hybrid construct
B3: Lmod2_(ABS2) (domain or fragment)
chain: NGRNTESPAAIHPCGNPTVIEDALDKIKSNDPDTTEVNLNNIENITTQTLTRFAEALKDNTVVKTFSLANTHADDSAAMAIAEMLKVNEHITNVNVESNFITGKGILAIMRALQHNTVLTELRFHNQRHIMGSQVEMEIVKLLKENTTLLRLGYHFELPGPRMSMTSILTRNMDKQRQKRLQEQKQQE
notes: the limits 180-367 are printed for the construct of the same name made for cell expression; Cloned in vector pTYB1; also called isolated ABS2 of Lmod2

The target in the assay is actin (UniProt P68135 1-377). As to the kind of experiment: ITC; Tmod or Lmod construct in the syringe titrated into LatB-actin in the cell (LatB:actin 1.2:1); 20 mM HEPES pH 7.5, 100 mM NaCl, 0.2 mM ATP, 1 mM DTT; temperature and concentrations listed in the figures. The settings on record: both partners purified. A general note: ITC needs no label: the signal is the heat of the interaction.
Take B1: the “stoichiometry N” value worked out at 2.
In the case of B2 it was 2; in that of B3, 2.
